Measured values taken from PMC7489914, “Structural and functional studies of Arabidopsis thaliana legumain beta reveal isoform specific mechanisms of activation and substrate recognition” (The Journal of Biological Chemistry, 2020).

Target: T1, AtLEGβ catalytic AEP domain (up to the autocatalytic cleavage site Asn333) (Arabidopsis thaliana, UniProt Q39044 22-333)
T1 construct: Arabidopsis thaliana legumain isoform β, catalytic (AEP) domain up to the autocatalytic cleavage site Asn333; Removal of the His6 tag (cleavage within the TEV site) was only observed under very acidic pH conditions; also called catalytic domain; AEPβ
T1 sequence (looked up): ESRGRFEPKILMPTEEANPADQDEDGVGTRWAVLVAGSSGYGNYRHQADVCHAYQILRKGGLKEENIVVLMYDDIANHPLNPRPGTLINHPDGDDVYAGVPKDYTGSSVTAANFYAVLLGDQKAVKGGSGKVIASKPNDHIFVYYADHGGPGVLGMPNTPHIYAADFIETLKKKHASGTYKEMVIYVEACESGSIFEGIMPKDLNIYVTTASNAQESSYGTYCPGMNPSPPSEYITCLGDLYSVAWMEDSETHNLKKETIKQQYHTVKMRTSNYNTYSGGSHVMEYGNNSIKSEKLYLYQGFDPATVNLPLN
Assay: SEC; pH 5.0-activated AtLEGβ on an S200 column, 20 mM citric acid pH 5.0, 100 mM NaCl; BSA as size standard
Details: both partners purified

binding result: binds
B1: AtLEGβ AP-LSAM C-terminal fragment (Gln346–Ala486) (domain or fragment, Arabidopsis thaliana, UniProt Q39044 346-486, looked up)
chain: QRDADLLFLWHMYRTSEDGSRKKDDTLKELTETTRHRKHLDASVELIATILFGPTMNVLNLVREPGLPLVDDWECLKSMVRVFEEHCGSLTQYGMKHMRAFANVCNNGVSKELMEEASTAACGGYSEARYTVHPSILGYSA
notes: also called LSAM domain
